Measured values as given in article doi:10.1101/2023.11.28.568993 (bioRxiv, 2023).

Target: the molecule itself
Assay: SEC

B1: DNAJA2 (wild-type, class A J-domain protein) (natural protein)
chain: not shown
modifications: Alexa Fluor-488 label in the fluorescence anisotropy assays (site not stated)
How did the “stoichiometry N” value turn out when B1 was run?
The value was 2.
